Experiment [1] has as its target T1, KRAS G12V 7-16, P5V peptide on HLA-A*11:01 (human).
T1 peptide: VVVGVVGVGK
The experiment in a line: cytokine release.

Experiment [2] has as its target T2, KRAS G12V 7-16, P9D peptide on HLA-A*11:01 (human).
T2 peptide: VVVGAVGVDK
The experiment in a line: cytokine release.

Experiment [3] has as its target T3, KRAS G12V 7-16, P9S peptide on HLA-A*11:01 (human).
T3 peptide: VVVGAVGVSK
The experiment in a line: cytokine release.

Experiment [4] addresses T4, KRAS G12V 7-16, P5T peptide on HLA-A*11:01 (human).
T4 peptide: VVVGTVGVGK
The experiment in a line: cytokine release.

Experiment [5] deals with T5, KRAS G12V 7-16, P1A peptide on HLA-A*11:01 (human).
T5 peptide: AVVGAVGVGK
The experiment in a line: cytokine release.

Experiment [6] addresses T6, KRAS G12V 7-16, P9Q peptide on HLA-A*11:01 (human).
T6 peptide: VVVGAVGVQK
The experiment in a line: cytokine release.

For experiment [7], the target named is T7, KRAS G12V 7-16, P3C peptide on HLA-A*11:01 (human).
T7 peptide: VVCGAVGVGK
The experiment in a line: cytokine release.

For experiment [8], the target named is T8, KRAS G12V 7-16, P8I peptide on HLA-A*11:01 (human).
T8 peptide: VVVGAVGIGK
The experiment in a line: cytokine release.

Experiment [9] addresses T9, KRAS G12V 7-16, P3M peptide on HLA-A*11:01 (human).
T9 peptide: VVMGAVGVGK
The experiment in a line: cytokine release.

For experiment [10], the target named is T10, KRAS G12V 7-16, P8G peptide on HLA-A*11:01 (human).
T10 peptide: VVVGAVGGGK
The experiment in a line: cytokine release.

Experiment [11] concerns the target T11, KRAS G12V 7-16, P9A peptide on HLA-A*11:01 (human).
T11 peptide: VVVGAVGVAK
The experiment in a line: cytokine release.

Experiment [12] has as its target T12, KRAS G12V 7-16, P5C peptide on HLA-A*11:01 (human).
T12 peptide: VVVGCVGVGK
The experiment in a line: cytokine release.

In experiment [13] the target is T13, KRAS G12V 7-16, P3E peptide on HLA-A*11:01 (human).
T13 peptide: VVEGAVGVGK
The experiment in a line: cytokine release.

Experiment [14] has as its target T14, KRAS G12V 7-16, P5P peptide on HLA-A*11:01 (human).
T14 peptide: VVVGPVGVGK
The experiment in a line: cytokine release.

For experiment [15], the target named is T15, KRAS G12V 7-16, P3A peptide on HLA-A*11:01 (human).
T15 peptide: VVAGAVGVGK
The experiment in a line: cytokine release.

In experiment [16] the target is T16, KRAS G12V 7-16, P3Q peptide on HLA-A*11:01 (human).
T16 peptide: VVQGAVGVGK
The experiment in a line: cytokine release.

In experiment [17] the target is T17, KRAS G12V 7-16, P8F peptide on HLA-A*11:01 (human).
T17 peptide: VVVGAVGFGK
The experiment in a line: cytokine release.

In experiment [18] the target is T18, KRAS G12V 7-16, P9N peptide on HLA-A*11:01 (human).
T18 peptide: VVVGAVGVNK
The experiment in a line: cytokine release.

In experiment [19] the target is T19, KRAS G12V 7-16, P3G peptide on HLA-A*11:01 (human).
T19 peptide: VVGGAVGVGK
The experiment in a line: cytokine release.

The target in experiment [20] is T20, KRAS G12V 7-16, P3S peptide on HLA-A*11:01 (human).
T20 peptide: VVSGAVGVGK
The experiment in a line: cytokine release.

Experiment [21] concerns the target T21, KRAS G12V 7-16, P8L peptide on HLA-A*11:01 (human).
T21 peptide: VVVGAVGLGK
The experiment in a line: cytokine release.

Experiment [22] concerns the target T22, KRAS G12V 7-16, P2I peptide on HLA-A*11:01 (human).
T22 peptide: VIVGAVGVGK
The experiment in a line: cytokine release.

Experiment [23] has as its target T23, KRAS G12V 7-16, P5S peptide on HLA-A*11:01 (human).
T23 peptide: VVVGSVGVGK
The experiment in a line: cytokine release.

Experiment [24] has as its target T24, KRAS G12V 7-16, P3I peptide on HLA-A*11:01 (human).
T24 peptide: VVIGAVGVGK
The experiment in a line: cytokine release.

The target of experiment [25] is T25, KRAS G12V 7-16, P6I peptide on HLA-A*11:01 (human).
T25 peptide: VVVGAIGVGK
The experiment in a line: cytokine release.

Experiment [26] addresses KRAS G12V 7-16 epitope peptide … presented by HLA-A*11:01 (human). The experiment in a line: cell-based or functional assay.
The target in experiment [27] is T26, KRAS G12V 7-16, P8C peptide on HLA-A*11:01 (human).
T26 peptide: VVVGAVGCGK
The experiment in a line: cytokine release.

In experiment [28] the target is T27, KRAS G12V 7-16, P6L peptide on HLA-A*11:01 (human).
T27 peptide: VVVGALGVGK
The experiment in a line: cytokine release.

In experiment [29] the target is T28, KRAS G12V 7-16, P8T peptide on HLA-A*11:01 (human).
T28 peptide: VVVGAVGTGK
The experiment in a line: cytokine release.

For experiment [30], the target named is T29, KRAS G12V 7-16, P7Q peptide on HLA-A*11:01 (human).
T29 peptide: VVVGAVQVGK
The experiment in a line: cytokine release.

Experiment [31] deals with T30, KRAS G12V 7-16, P1T peptide on HLA-A*11:01 (human).
T30 peptide: TVVGAVGVGK
The experiment in a line: cytokine release.

Experiment [32] has as its target T31, KRAS G12V 7-16, P7A peptide on HLA-A*11:01 (human).
T31 peptide: VVVGAVAVGK
The experiment in a line: cytokine release.

Experiment [33] has as its target T32, KRAS G12V peptide on HLA-A*11:01 (human).
T32 peptide: VVVGAVGVGK
The experiment in a line: luciferase killing assay; TCR-T cells with T2KO-A1101 cells loaded with 1e-5 to 1e-11 M peptide, E:T 9:1, 20 h; Figure 5C; full-length, on cells.

Experiment [34] addresses T32, KRAS G12V peptide on HLA-A*11:01. The experiment in a line: NFAT-GFP reporter in Jurkat (endogenous TCR knocked out); T2 cells loaded with 1e-5 to 1e-9 M target antigen peptide; full-length, on cells.
For experiment [35] the target is unchanged. The experiment in a line: IFN-gamma ELISA; TCR-T cells with T2KO-A1101 cells loaded with 1e-5 to 1e-11 M peptide, E:T 1:1, 20 h; Figure 6C; full-length, on cells.
For experiment [36], the target named is KRAS G12D 7-16 epitope peptide … presented by HLA-A*11:01 (human). The experiment in a line: cell-based or functional assay.
The target in experiment [37] is T33, KRAS G12D peptide on HLA-A*11:01 (human).
T33 peptide: VVVGADGVGK
The experiment in a line: IFN-gamma ELISA; TCR-T cells with T2KO-A1101 cells loaded with 1e-5 to 1e-11 M peptide, E:T 1:1, 20 h; Figure 6D; full-length, on cells.

Experiment [38] addresses T33, KRAS G12D peptide on HLA-A*11:01. The experiment in a line: NFAT-GFP reporter in Jurkat (endogenous TCR knocked out); T2 cells loaded with 1e-5 to 1e-9 M target antigen peptide; full-length, on cells.

B1: KVA11-N02 (TCR, V domains shown)
Valpha: AQSVAQPEDQVNVAEGNPLTVKCTYSVSGNPYLFWYVQYPNRGLQFLLKYITGDNLVKGSYGFEAEFNKSQTSFHLKKPSALVSDSALYFCAVRDIEGAGNNRKLIWGLGTSLAVNP
Vbeta: DAGVIQSPRHEVTEMGQEVTLRCKPISGHNSLFWYRQTMMRGLELLIYFNNNVPIDDSGMPEDRFSAKMPNASFSTLKIQPSEPRDSAVYFCASSEGFYTEAFFGQGTRLTVV
Take B1: the binding result in experiment [1], in experiment [2], in experiment [3], in [4], in experiment [5] and in experiment [6] was “recognises” throughout. Besides, the binding result in experiment [7], in experiment [8], in experiment [9], in [10], in experiment [11] and in experiment [12] was “recognises” in each case. For the same molecule, the binding result in [13], in experiment [14], in experiment [15], in experiment [16], in experiment [17] and in [18] was “recognises” each time. Further, the binding result in experiment [19], in [20], in experiment [21], in experiment [22], in [23] and in experiment [24] was “recognises” throughout. Also, the binding result in experiment [25] is recorded as “recognises”.

B2: KVA11-N04 (TCR, V domains shown)
Valpha: GESVGLHLPTLGVQEGDNSIINCAYSNSASDYFIWYKQESGKGPQFIIDIRSNMDKRQGQRVTVLLNKTVKHLSLQIAATQPGDSAVYFCAENSDGTSYGKLTFGQGTILTVHP
Vbeta: EAGVAQSPRYKIIEKRQSVAFWCNPISGHATLYWYQQILGQGPKLLIQFQNNGVVDDSQLPKDRFSAERLKGVDSTLKIQPAKLEDSAVYLCASSLVGSPDYEQYFGPGTRLTVT
With B2, the EC50 of IFN-γ secretion with peptide-loaded T2KO-A1101 cells (ELISA, E:T 1:1, 20 hours) in [26] was found to be 22 nM. Moreover, the EC50 of NFAT-GFP reporter activation, TCR in Jurkat-NFAT cells with peptide-loaded T2 cells in [26] turned out to be 28.9 nM. Further, in experiment [26], the EC50 of killing of peptide-loaded T2KO-A1101 cells (luciferase, E:T 9:1, 20 hours) was found to be 0.973 nM. Further, the binding result in [27], in experiment [28], in experiment [29], in [30], in [8] and in [31] was “recognises” throughout. Besides, the binding result in experiment [32], in [12], in experiment [15], in [19], in [22] and in experiment [23] was “recognises” throughout. The binding result in experiment [24] and in experiment [25] was “recognises” each time. In addition, the EC50 of peptide in [33] is 0.973 nM; in experiment [34] it was 28.9 nM; in experiment [35], 22 nM.

B3: KDA11-N01 (TCR, V domains shown)
Valpha: QKEVEQNSGPLSVPEGAIASLNCTYSDRGSQSFFWYRQYSGKSPELIMSIYSNGDKEDGRFTAQLNKASQYVSLLIRDSQPSDSATYLCAVNLGAAGNKLTFGGGTRVLVKP
Vbeta: EAGVAQSPRYKIIEKRQSVAFWCNPISGHATLYWYQQILGQGPKLLIQFQNNGVVDDSQLPKDRFSAERLKGVDSTLKIQPAKLEDSAVYLCASSFSDSYNSPLHFGNGTRLTVT
B3: the EC50 of IFN-γ secretion with peptide-loaded T2KO-A1101 cells (ELISA, E:T 1:1, 20 hours) in [36] was 49.6 nM. The EC50 of NFAT-GFP reporter activation, TCR in Jurkat-NFAT cells with peptide-loaded T2 cells in experiment [36] turned out to be 76.5 nM. Also, the values for the EC50 of peptide in [37] and in experiment [38] were 49.6 nM and 76.5 nM, respectively.

The values above are taken from patent EP4660201A1 (dated 2025).
